1 substance from paper PMC4858563 can be followed below.

In this assay the target is Tula virus (TULV) Gn glycoprotein on virions (Tula virus (TULV), strain Moravia). Description: cryo-EM structure.

Substance “Tula virus (TULV) Gn glycoprotein on virions (natural protein)” gave a stoichiometry N of 4.

One may read the stoichiometry N as the number of molecules, sites or subunits per partner or assembly.
